Experimental data from patent CN113388028A (SHENZHEN FUTIAN GEWU ZHIKANG PATHOGEN RES INSTITUTE; …, dated 2021).

B1: 重组抗体24G8 (antibody, V domains shown)
VH: EVQLVESGGGLVKPGGSLRLSCAASGFTFSSYSMNWVRQAPGKGLEWVSSISSSSSFIYYADSVKGRFTISRDNAKNSLYLQMNSLRAEDTAVYYCAREVHVDTAMDAYFDYWGQGTLVTVSS
VL: DIQMTQSPSSLSASVGDRVTITCRASQTISSYLNWYQQKPGKAPKLLIFAASSLQSGVPSRFSGSGSGTDFTLTISSLQPEDFATYYCQQSYSNPPLTFGGGTKVEIE
notes: also called 24G8-Biotin
B2: 重组抗体8B4 (antibody, V domains shown)
VH: EVQLVQSGAEVKKPGSSVKVSCKASGGTFSSFSISWVRQAPGQGLEWMGRIIPVLGIANYAQEVQGRVTITADKSTSTAYMELSSLRSEDTAVYFCTTDRFVEPATGPFFDYWGQGTLVTVSS
VL: EIVMTQSPATLSVSPGERATLSCRASQSVSSNLAWYQQKPGQAPRLLIYGASTRATGIPARFSGSGSGTEFTLTISSLQSEDFAVYYCQQYSNWLTFGGGTKVEIK
notes: also called 8B4-Biotin

Experiments:
[1] = molecular target: S1RBD-his (SARS-CoV-2 S1蛋白RBD与His的融合蛋白) (SARS-CoV-2); experiment: BLI (Octet QKe), antibody captured on AHC sensor, S1RBD-His in solution, 1:1 fit
[2] = molecular target: S1RBD-mFc (SARS-CoV-2 S1蛋白RBD与mFc的融合蛋白) (SARS-CoV-2)
MERS-S1 = molecular target: T1, MERS-S1 (MERS-CoV, UniProt K9N5Q8 18-725); experiment: ELISA
T1 construct: domain: S1

SARS-S1 = molecular target: T2, SARS-S1 (SARS-CoV, UniProt P59594 14-667); experiment: ELISA
T2 construct: domain: S1

Binder | Kd [1] [nM] | koff [1] [s⁻¹] | kon [1] [M⁻¹ s⁻¹] | IC50 [2] [nM] | binding result (MERS-S1) | binding result (SARS-S1)
B1 | 1.08 | 0.000264 | 244000 | 11.4 | – | –
B2 | 7.7 | 0.00157 | 204000 | 23.1 | no binding | no binding
